We go through seven molecules from patent EP4659808A2 (Sanofi, dated 2025).

Experiment [1] concerns the target T1, murine laminin G-like 5 domain (mLG-5) (mouse, UniProt Q60675 2932-3118, biotinylated (Avi tag) ; Biotinylated at the Avi tag (soluble biotinylated protein); the tag is left out of the letters.).
T1 construct: Soluble protein from Expi293F cells; also called murine LG-5
T1 sequence: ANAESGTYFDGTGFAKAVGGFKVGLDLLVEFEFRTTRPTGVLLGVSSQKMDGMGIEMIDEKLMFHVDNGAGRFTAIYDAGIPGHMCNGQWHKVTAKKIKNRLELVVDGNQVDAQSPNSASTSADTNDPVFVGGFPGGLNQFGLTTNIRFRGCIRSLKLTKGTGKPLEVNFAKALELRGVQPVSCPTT
Briefly: SPR (Biacore), mAb immobilized, mLG-5 in flow. For orientation: SPR reads the build-up and loss of mass on a sensor chip optically.

Experiment [2] addresses T2, murine beta-DG extracellular domain (mbeta-DG ECD) (mouse, UniProt Q62165 652-746).
T2 construct: range 652-746; Made in E. coli; also called mbeta-DG-HPC4; m βDG; not shown: C-terminal HPC4 tag
T2 sequence (looked up): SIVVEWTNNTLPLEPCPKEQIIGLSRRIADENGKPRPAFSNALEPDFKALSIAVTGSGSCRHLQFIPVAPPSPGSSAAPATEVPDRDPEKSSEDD
Briefly: SPR (Biacore), mAb immobilized, mBeta-DG in flow.

The target of experiment [3] is T3, human beta-DG extracellular domain (human, UniProt Q14118 654-749, biotinylated in the Example 6 ELISA).
T3 construct: extracellular domain; Expression of the soluble human protein is not described; also called hBeta-DG; hbeta-DG
T3 sequence (looked up): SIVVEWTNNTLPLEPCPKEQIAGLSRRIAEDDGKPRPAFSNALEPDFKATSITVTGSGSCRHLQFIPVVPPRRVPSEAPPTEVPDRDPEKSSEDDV
Briefly: SPR (Biacore), mAb immobilized, hBeta-DG in flow.

The target of experiment [4] is T3, human beta-DG extracellular domain. Nature of the experiment: SPR (Biacore T100), antibody captured on Protein G chip, BDG in flow, 1:1 model.
Experiment [5] has as its target T4, Fabrazyme (agalsidase beta, Genzyme) (UniProt P06280 32-429).
T4 construct: Negative control in the dot blots
T4 sequence (looked up): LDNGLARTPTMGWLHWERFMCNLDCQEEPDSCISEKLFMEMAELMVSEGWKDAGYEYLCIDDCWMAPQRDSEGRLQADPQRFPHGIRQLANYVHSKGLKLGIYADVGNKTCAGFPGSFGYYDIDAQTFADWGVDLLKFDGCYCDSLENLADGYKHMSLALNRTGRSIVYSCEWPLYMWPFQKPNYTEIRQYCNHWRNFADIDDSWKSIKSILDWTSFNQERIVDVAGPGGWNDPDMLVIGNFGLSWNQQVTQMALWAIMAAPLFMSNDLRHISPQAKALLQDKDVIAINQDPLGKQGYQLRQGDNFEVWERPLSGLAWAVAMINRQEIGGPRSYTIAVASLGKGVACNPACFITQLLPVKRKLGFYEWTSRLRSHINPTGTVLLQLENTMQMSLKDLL
Nature of the experiment: dot blot.

Positions count from the first letter of the chain named.

B1: anti-laminin-2 antibody derived from hybridoma clone C3 (antibody, V domains shown)
VH: DVMLVESGGDLVKPGGSLKLSCAASGFTFSSYTMSWVRQTPEKRLEWVASISSGGGNTYYPDSVKGRFTISRDNAKNNLYLQMSSLRSEDTALYYCARFDYGSSLDSWGQGTTLTVSS
VL: DIVLTQSPATLSVTPGDSVSLSCRASQSISNNLHWYQQKSHESPRLLIKYASQSISGIPSRFSGSGSGTDFTLSINSVETEDFGMYFCQQSKNWPRTFGGGTKLEIK
notes: Hybridoma-derived monoclonal antibody detected with anti-mouse IgG; Chimeric human IgG1/kappa versions were also made; also called C03; anti-laminin-2(C3)
The Kd is the concentration at which binding is half-saturated. For the molecule B1, binding in experiment [1] was put at a Kd of 8.27 nM.

B2: anti-beta-DG antibody derived from phage display clone B06 (antibody, V domains shown)
VH: QIQLVQSGAEVKKPGKSLKIACKGSGYSFSNYWIGWVRQMPGKGLEWMGIIYPGDSDTRYSPSFHGQVTISADKSISTAYLQWSSLKASDTAMYYCARGVIINGTTSGFDYWGQGTLVIVSS
VL: ETTLTQSPATLSVSPGERATLSCRASQSVSSNLAWYQQKPGQAPRLLMYGASTRATGIPARFSGSGSGTEFTLTISSLQSEDFAVYYCQHYNNLPLTFGGGTKVDLK
notes: Phage display clone; also called B6
As a reminder, the koff is the rate constant with which the complex falls apart. A low value points to a long-lived complex. What is called kon is a measure of how fast the partners come together. As to B2, in experiment [2], the Kd was determined as 162 nM, the koff came to 0.00232 s⁻¹ and the kon worked out at 14300 M⁻¹ s⁻¹. In experiment [3], this molecule returned a Kd of 2.36 nM, a koff of 0.00216 s⁻¹ and a kon of 968000 M⁻¹ s⁻¹.

B3: anti-beta-DG antibody phage display clone B04 (antibody, V domains shown)
VH: QVQLQQSGGGLVQPGGSLRLSCAASGFTFSSYAMSWVRQAPGKGLEWVSAISGSGGSTYYADSVKGRFTVSRDNSKNTLYLQMNSLRAEDTAVYYCARLGYCSSTSCYLSAFDIWGQGTMVTVSS
VL: EIVLTQSPSTLSASVGDRVTITCRASQSISSWLAWYQQKPGKAPKLLIYDASSLESGVPSRFSGSGSGTEFTLTISSLQPDDFATYYCQQYNSYPLTFGGGTKVEIK
notes: Phage display clone
Molecule B3 had a Kd in experiment [3] of 2.57 nM.

B4: triAb 3439 (bispecific antibody, human IgG1, kappa)
light 1: EIVLTQSPDFLSVTPKEKVTLTCRASQSISNNLHWYQQKSDQSPKLLIKYASQSISGIPSRFSGSGSGTDFTLTINSVEAEDAATYFCQQSKSWPRTFGGGTKLEIKDKTHTEIVLTQSPDFLSVTPGEKVTLTCRASQSISNYLHWYQQKSDQSPKLLIKYASQSISGVPSRFSGSGSGTDFTLTISSVEAEDFATYFCQQSKSWPRTFGGGTKLEIKDKTHTRTVAAPSVFIFPPSDEQLKSGTASVVCLLNNFYPREAKVQWKVDNALQSGNSQESVTEQDSKDSTYSLSSTLTLSKADYEKHKVYACEVTHQGLSSPVTKSFNRGEC
heavy 1: EVQLVESGGGLVQPGGSLRLSCAASGFTFSSYTMSWVRQAPGKGLEWVATISSSGDNTYYPDSVKGRFTISRDNSKNTLYLQMSSLRAEDTALYYCARFDYGSSLDSWGQGTTLTVSSDKTHTEVQLVESGGGLVKPGGSLRLSCAASGFTFSSYTMSWVRQAPGKGLEWVASISSSGSNTYYPDSVKGRFTISRDNAKNNLYLQMNSLRAEDTALYYCARFDYGSSLDSWGQGTLLTVSSDKTHTASTKGPSVFPLAPSSKSTSGGTAALGCLVKDYFPEPVTVSWNSGALTSGVHTFPAVLQSSGSLSSVVTVPSSSLGTQTYICNVNHKPSNTKVDKKVEPKSCDKTHTCPPCPAPELLGGPSVFLFPPKPKDTLYITREPEVTCVVVDVSHEDPEVKFNWYVDGVEVHNAKTKPREEQYNNASRVVSVLTVLHQDWLNGKEYKCKVSNKALPAPIEKTISKAKGQPREPQVYTLPPCRDELTKNQVSLWCLVKGFYPSDIAVEWESNGQPENNYKTTPPVLDSDGSFFKKLTVDKSRWQQGNVFSCSVMHEALHNHYTQKSLSLSPG
heavy 2: QVQLVQSGAEVVKPGSSVKVSCEASGFTFTDSVITWVRQRPGQGLEWIGEIYPGSGNFYYNEKFQGRVTITADKSTSTAYMELSSLRSEDTAVYFCAMRRSSWGQGTLVTVSSASTKGPSVFPLAPSSKSTSGGTAALGCLVKDYFPEPVTVSWNSGALTSGVHTFPAVLQSSGSLSSVVTVPSSSLGTQTYICNVNHKPSNTKVDKKVEPKSCDKTHTCPPCPAPELLGGPSVFLFPPKPKDTLYITREPEVTCVVVDVSHEDPEVKFNWYVDGVEVHNAKTKPREEQYNNASRVVSVLTVLHQDWLNGKEYKCKVSNKALPAPIEKTISKAKGQPREPQVCTLPPSRDELTKNQVSLSCAVKGFYPSDIAVEWESNGQPENNYKTTPPVLDSDGSFFLVSKLTVDKSRWQQGNVFSCSVMHEALHNRFTQKSLSLSPG
light 2: DVVMTQTPLSLSVTPGQPASISCKSSQTIVHSNSKTYLEWYLQKPGQSPQLLIYKVSSRFSGVPDRFSGSGSGTDFTLKISRVEAEDVGVYYCFQGSHVPLTFGQGTKLEIKRTVAAPSVFIFPPSDEQLKSGTASVVCLLNNFYPREAKVQWKVDNALQSGNSQESVTEQDSKDSTYSLSSTLTLSKADYEKHKVYACEVTHQGLSSPVTKSFNRGEC
In experiment [4], B4 gave a Kd of 1.3 nM, an off-rate (koff) of 0.004 s⁻¹ and an on-rate constant (kon) of 3.07e+06 M⁻¹ s⁻¹.

B5: triAb 3429 (bispecific antibody, human IgG1, kappa)
light 1: EIVLTQSPDFLSVTPGEKVTLTCRASQSISNYLHWYQQKSDQSPKLLIKYASQSISGVPSRFSGSGSGTDFTLTISSVEAEDFATYFCQQSKSWPRTFGGGTKLEIKDKTHTEIVLTQSPDFLSVTPKEKVTLTCRASQSIGNNLHWYQQKSDQSPKLLIKYASQSISGIPSRFSGSGSGTDFTLTINSVEAEDAATYFCQQSKSWPRTFGGGTKLEIKDKTHTRTVAAPSVFIFPPSDEQLKSGTASVVCLLNNFYPREAKVQWKVDNALQSGNSQESVTEQDSKDSTYSLSSTLTLSKADYEKHKVYACEVTHQGLSSPVTKSFNRGEC
heavy 1: EVQLVESGGGLVKPGGSLRLSCAASGFTFSSYTMSWVRQAPGKGLEWVASISSSGSNTYYPDSVKGRFTISRDNAKNNLYLQMNSLRAEDTALYYCARFDYGSSLDSWGQGTLLTVSSDKTHTEVQLVESGGGLVQPGGSLRLSCAASGFTFSSYTMSWVRQAPGKGLEWVATISSSGDNTYYPDSVKGRFTISRDNSKNTLYLQMSSLRAEDTALYYCARFDYGSSLDSWGQGTTLTVSSDKTHTASTKGPSVFPLAPSSKSTSGGTAALGCLVKDYFPEPVTVSWNSGALTSGVHTFPAVLQSSGSLSSVVTVPSSSLGTQTYICNVNHKPSNTKVDKKVEPKSCDKTHTCPPCPAPELLGGPSVFLFPPKPKDTLYITREPEVTCVVVDVSHEDPEVKFNWYVDGVEVHNAKTKPREEQYNNASRVVSVLTVLHQDWLNGKEYKCKVSNKALPAPIEKTISKAKGQPREPQVYTLPPCRDELTKNQVSLWCLVKGFYPSDIAVEWESNGQPENNYKTTPPVLDSDGSFFKKLTVDKSRWQQGNVFSCSVMHEALHNHYTQKSLSLSPG
heavy 2: B4 heavy 2
light 2: B4 light 2
In experiment [4], B5 registered a Kd of 1.9 nM, a koff of 0.00404 s⁻¹ and a kon of 2.13e+06 M⁻¹ s⁻¹.

B6: anti-beta-DG antibody derived from hybridoma clone AS30 (antibody, V domains shown)
VH: QIQLQQSGPELVKPGASVKMSCEASGFTFTDSVITWVKQRPGQGLEWIGEIYPGSGNFYYNEKFKGKATLTADKSSNTAYMQLRSLTSEDSAVYFCAMRRSSWGQGTLVTVSA
VL: DVLMTQTPLSLPVSLGDQASISCRSSQTIVHSNSKTYLEWYLQKPGQSPKLLIYKVSNRFSGVPDRFSGSGSGTDFTLKISRVEAEDLGVYYCFQGSHVPLTFGAGTKLELK
notes: detected with anti-mouse IgG
Turning to B6, the binding result in experiment [5] is recorded as “no binding”. In experiment [2], this molecule yielded a dissociation constant (Kd) of 1.48 nM, a koff of 0.00113 s⁻¹ and a kon of 773000 M⁻¹ s⁻¹. For the same molecule, in experiment [3], the dissociation constant (Kd) is 1.08 nM, the koff stood at 0.000963 s⁻¹ and the kon turned out to be 890000 M⁻¹ s⁻¹.

B7: anti-beta-DG antibody derived from hybridoma clone AS19 (antibody, V domains shown)
VH: B6 VH with I2V, E23K, T35S, P41T, N57S, F58I, S102Y
VL: B6 VL with T28S, S34G, K35N
notes: Hybridoma-derived monoclonal antibody detected with anti-mouse IgG; also called parental anti-beta-DG (clone AS19)
For B7, the binding result in experiment [5] is reported as “no binding”.
